Experimental data as given in the supplement of paper PMC10065799, “High-throughput profiling of sequence recognition by tyrosine kinases and SH2 domains using bacterial peptide display” (eLife, 2023).

What was measured:
c-Src = experiment: phosphorylation enrichment, bacterial display (enrichment ratio); higher = better substrate or ligand; peptides without Tyr show the background
FGFR1 = FGFR1 (UniProt P11362); experiment: as above
EPHB2 = EPHB2 (UniProt P29323); experiment: as above
AncSZ = experiment: as above
FGFR3 = FGFR3 (UniProt P22607); experiment: as above
Fes = Fes (UniProt P07332); experiment: as above
Chain of Fes (P07332 whole entry, looked up): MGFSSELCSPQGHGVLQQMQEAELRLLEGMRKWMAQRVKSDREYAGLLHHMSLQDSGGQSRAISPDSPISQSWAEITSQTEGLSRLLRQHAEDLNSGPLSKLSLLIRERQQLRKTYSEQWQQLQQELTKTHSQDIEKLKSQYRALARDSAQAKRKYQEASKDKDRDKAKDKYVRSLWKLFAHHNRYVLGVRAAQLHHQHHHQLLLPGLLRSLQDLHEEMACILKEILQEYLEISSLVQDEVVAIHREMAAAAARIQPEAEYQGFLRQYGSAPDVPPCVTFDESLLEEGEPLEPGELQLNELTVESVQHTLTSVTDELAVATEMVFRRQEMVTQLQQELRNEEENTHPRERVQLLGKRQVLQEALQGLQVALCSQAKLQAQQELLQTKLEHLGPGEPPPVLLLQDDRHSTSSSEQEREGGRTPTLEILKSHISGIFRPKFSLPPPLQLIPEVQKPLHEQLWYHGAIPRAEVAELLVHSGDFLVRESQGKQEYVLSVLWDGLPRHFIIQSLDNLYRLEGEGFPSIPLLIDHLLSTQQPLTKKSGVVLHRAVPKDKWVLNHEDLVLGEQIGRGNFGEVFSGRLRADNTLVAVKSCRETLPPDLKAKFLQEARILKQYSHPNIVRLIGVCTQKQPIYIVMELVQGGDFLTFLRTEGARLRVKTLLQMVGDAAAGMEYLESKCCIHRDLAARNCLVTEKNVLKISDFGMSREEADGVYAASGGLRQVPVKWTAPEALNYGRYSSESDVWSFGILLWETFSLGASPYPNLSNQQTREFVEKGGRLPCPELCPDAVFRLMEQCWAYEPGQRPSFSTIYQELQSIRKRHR

Fyn = Fyn (UniProt P06241); experiment: as above
Chain of Fyn (P06241 whole entry, looked up): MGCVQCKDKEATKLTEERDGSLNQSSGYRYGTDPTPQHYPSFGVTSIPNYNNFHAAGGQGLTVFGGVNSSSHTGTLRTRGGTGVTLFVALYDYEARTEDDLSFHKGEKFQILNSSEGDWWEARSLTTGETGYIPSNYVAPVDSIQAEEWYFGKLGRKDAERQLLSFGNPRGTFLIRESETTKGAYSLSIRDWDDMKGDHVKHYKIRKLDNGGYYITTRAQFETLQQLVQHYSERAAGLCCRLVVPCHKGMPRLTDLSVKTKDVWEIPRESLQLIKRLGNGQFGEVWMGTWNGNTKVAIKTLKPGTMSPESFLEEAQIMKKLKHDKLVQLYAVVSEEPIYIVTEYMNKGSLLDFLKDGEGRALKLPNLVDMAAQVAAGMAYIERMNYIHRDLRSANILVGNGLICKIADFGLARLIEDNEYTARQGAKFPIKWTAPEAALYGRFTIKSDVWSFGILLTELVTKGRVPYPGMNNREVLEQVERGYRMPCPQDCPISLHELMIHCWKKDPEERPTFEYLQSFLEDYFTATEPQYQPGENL

Hck = Hck (UniProt P08631); experiment: as above
Chain of Hck (P08631 whole entry, looked up): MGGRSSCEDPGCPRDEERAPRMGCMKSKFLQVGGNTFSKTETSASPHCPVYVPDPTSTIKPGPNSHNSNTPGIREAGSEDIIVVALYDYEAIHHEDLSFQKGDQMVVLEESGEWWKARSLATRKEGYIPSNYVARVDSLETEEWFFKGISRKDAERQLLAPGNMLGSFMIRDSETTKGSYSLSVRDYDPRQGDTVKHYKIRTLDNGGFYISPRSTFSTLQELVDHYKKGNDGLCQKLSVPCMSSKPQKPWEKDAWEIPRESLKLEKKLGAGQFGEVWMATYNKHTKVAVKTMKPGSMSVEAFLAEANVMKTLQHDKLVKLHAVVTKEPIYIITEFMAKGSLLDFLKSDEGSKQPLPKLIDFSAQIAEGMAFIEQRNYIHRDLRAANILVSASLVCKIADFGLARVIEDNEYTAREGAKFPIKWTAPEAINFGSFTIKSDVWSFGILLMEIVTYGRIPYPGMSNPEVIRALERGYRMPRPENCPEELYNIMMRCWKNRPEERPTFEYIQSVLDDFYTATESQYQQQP

c-Abl (mouse) = experiment: as above
EPHB1 = EPHB1 (UniProt P54762); experiment: as above
MERTK = MERTK (UniProt Q12866); experiment: as above
Chain of MERTK (Q12866 whole entry, looked up): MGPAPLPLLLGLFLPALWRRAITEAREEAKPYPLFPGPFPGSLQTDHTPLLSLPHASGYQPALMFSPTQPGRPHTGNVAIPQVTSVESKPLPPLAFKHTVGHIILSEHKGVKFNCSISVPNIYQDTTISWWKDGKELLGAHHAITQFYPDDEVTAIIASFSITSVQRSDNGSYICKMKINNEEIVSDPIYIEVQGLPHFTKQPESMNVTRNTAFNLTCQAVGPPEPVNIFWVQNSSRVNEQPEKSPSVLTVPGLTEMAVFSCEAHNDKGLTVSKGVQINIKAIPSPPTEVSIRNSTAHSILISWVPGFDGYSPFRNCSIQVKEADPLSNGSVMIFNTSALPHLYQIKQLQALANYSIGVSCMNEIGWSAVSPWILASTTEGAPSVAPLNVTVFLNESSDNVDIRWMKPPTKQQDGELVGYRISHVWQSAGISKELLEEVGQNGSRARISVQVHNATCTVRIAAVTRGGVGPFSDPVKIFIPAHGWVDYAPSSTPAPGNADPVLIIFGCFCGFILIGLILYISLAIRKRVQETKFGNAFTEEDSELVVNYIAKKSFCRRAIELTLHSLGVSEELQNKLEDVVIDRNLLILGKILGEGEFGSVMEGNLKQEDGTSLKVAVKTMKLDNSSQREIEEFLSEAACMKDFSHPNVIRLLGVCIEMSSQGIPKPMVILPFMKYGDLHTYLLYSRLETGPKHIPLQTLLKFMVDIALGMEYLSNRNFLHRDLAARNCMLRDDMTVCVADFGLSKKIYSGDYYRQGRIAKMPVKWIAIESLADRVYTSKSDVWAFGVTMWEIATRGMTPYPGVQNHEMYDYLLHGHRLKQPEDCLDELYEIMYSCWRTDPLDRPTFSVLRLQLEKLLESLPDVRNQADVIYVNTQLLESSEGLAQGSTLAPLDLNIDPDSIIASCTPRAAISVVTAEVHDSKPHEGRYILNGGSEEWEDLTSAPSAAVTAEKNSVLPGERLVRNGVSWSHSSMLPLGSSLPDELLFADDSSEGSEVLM

Fer (mouse) = experiment: as above
Jak2 = Jak2 (UniProt O60674); experiment: as above
Chain of Jak2 (O60674 whole entry, looked up): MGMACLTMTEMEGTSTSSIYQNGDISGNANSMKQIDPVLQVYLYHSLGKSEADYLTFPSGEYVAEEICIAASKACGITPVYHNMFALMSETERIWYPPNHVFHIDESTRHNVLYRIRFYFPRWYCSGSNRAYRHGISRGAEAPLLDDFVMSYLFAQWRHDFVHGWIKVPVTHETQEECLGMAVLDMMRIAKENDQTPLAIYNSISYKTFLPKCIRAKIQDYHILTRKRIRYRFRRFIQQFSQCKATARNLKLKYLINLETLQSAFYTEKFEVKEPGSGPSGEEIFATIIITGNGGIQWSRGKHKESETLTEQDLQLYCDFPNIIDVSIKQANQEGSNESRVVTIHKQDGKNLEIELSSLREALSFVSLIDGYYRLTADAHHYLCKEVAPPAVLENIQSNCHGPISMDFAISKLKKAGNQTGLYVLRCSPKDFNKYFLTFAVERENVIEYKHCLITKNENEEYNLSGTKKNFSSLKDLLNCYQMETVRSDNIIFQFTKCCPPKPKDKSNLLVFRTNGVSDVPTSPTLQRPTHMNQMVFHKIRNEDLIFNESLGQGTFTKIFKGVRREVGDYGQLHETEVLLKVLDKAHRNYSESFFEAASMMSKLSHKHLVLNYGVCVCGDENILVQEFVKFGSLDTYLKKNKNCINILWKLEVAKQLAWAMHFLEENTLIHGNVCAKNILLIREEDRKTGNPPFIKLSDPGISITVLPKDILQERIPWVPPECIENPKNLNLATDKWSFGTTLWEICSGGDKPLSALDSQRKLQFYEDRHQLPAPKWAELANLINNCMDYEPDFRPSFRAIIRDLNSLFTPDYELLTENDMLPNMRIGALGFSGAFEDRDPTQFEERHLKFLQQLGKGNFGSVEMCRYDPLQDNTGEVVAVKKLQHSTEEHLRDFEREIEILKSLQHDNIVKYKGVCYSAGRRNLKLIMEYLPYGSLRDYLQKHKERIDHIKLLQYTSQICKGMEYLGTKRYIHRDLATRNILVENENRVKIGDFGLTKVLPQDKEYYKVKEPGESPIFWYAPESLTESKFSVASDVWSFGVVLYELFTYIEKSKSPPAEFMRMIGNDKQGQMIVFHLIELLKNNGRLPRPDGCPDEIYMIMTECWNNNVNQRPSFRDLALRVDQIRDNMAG

Grb2 SH2 = Grb2 SH2 (UniProt P62993); experiment: SH2 binding enrichment of the phosphorylated peptide, bacterial display (enrichment ratio); higher = better substrate or ligand; peptides without Tyr show the background
SHP2-C SH2 = experiment: as above
c-Src SH2 = experiment: as above
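For SH2 binding enrichment of the phosphorylated peptide, bacterial display in this document: peptide library displayed on the E. coli surface as eCPX fusions, selected cells deep-sequenced, score is each peptide's frequency after selection divided by its frequency in the input.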
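For phosphorylation enrichment, bacterial display in this document: 11-residue human phosphosite peptides and single-mutation variants displayed on the E. coli surface, counted by deep sequencing, each peptide's frequency after selection divided by its frequency in the unselected input library; frequency after pTyr selection over input frequency; kinase dosed for 20-30% of maximal phosphorylation in three min.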

Chain of EPHB2 (P29323 whole entry, looked up): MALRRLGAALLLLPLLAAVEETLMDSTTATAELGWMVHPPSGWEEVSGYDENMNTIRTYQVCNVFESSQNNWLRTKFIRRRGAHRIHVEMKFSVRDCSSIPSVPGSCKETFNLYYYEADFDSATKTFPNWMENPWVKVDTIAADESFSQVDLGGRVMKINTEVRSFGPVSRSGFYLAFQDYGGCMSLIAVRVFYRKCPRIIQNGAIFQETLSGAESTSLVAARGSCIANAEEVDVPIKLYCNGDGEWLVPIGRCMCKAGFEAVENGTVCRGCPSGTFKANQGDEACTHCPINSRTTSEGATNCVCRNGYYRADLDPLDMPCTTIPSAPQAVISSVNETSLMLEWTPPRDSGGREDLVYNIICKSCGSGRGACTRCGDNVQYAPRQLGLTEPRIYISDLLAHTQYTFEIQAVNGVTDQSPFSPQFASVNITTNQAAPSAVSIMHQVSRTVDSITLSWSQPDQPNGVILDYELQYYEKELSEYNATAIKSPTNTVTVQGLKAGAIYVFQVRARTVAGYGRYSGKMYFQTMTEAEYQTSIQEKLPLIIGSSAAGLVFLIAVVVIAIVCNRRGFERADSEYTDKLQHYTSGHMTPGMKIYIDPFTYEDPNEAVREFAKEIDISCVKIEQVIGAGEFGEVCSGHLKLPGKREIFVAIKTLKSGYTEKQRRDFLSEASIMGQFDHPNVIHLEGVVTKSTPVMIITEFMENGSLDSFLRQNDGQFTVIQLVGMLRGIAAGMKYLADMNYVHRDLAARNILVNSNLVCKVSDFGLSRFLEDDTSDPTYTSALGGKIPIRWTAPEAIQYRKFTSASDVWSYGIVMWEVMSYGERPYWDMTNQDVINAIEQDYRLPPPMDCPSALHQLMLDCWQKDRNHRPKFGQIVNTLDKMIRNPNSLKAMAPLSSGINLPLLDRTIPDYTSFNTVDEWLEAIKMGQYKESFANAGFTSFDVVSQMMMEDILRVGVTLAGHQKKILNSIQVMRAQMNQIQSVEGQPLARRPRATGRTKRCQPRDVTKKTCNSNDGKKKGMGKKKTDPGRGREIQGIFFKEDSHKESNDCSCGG

SH2 binding enrichment (Grb2 SH2)	SH2 binding enrichment (SHP2-C SH2)	SH2 binding enrichment (c-Src SH2)	Sequence	phosphorylation enrichment (c-Src)	phosphorylation enrichment (FGFR1)	phosphorylation enrichment (EPHB2)	phosphorylation enrichment (AncSZ)	phosphorylation enrichment (FGFR3)	phosphorylation enrichment (Fes)	phosphorylation enrichment (Fyn)	phosphorylation enrichment (Hck)	phosphorylation enrichment (c-Abl (mouse))	phosphorylation enrichment (EPHB1)	phosphorylation enrichment (MERTK)	phosphorylation enrichment (Fer (mouse))	phosphorylation enrichment (Jak2)
0.904	0.622	0.408	VVKLAYNENDN [CAMKK2_Y183]	0.404	0.518	0.55	0.856	0.672	0.897	0.478	0.527	0.592	0.449	0.374	0.484	0.624
0.815	0.673	0.469	VVKLTYNENDN [CAMKK2_Y183_A182T]	0.419	0.618	0.545	0.939	0.564	0.917	0.468	0.5	0.551	0.491	0.467	0.577	0.726
0.651	0.981	0.482	VVKTVYSLQPS [KNSTRN_Y87_P92S]	2.05	0.52	0.455	0.648	0.561	0.848	1.73	0.688	0.716	0.671	1.42	0.485	0.715
1.12	1.11	0.829	VVQGIYGYHHY [UFSP2_Y285]	8.86	0.662	8.76	0.923	0.575	1.04	11.8	10.5	7.67	3.24	11.3	16.7	0.683
0.909	0.668	0.431	WAMPAYNRSKL [WWOX_Y293_L291P]	0.298	0.296	0.357	0.457	0.324	0.451	0.328	0.263	0.339	0.289	0.257	0.281	0.402
0.801	0.618	0.656	WANPEYTGGFK	0.685	0.43	0.383	1.29	0.646	1	0.422	0.575	0.917	0.549	0.364	0.413	0.734
1.66	1.92	1.32	WDLTDYLMKIL [ACTB_Y188_R183W]	0.487	0.539	0.548	1.25	0.777	1.32	0.519	0.611	0.894	0.556	0.477	0.529	1.23
0.919	2.22	0.646	WFPANYVKLLN [ITSN1_Y1132_S1137N]	0.532	0.599	1.21	1.06	0.76	1.14	0.53	0.536	0.759	3.81	0.587	0.511	1.45
0.788	0.827	0.605	WIPNQYPIISE [NOG_Y222_I220N]	0.636	0.63	0.526	0.86	0.671	0.98	0.361	0.465	0.747	0.427	0.342	0.541	0.862
0.662	0.633	0.478	WRPFGYPHRRR [BCS1L_Y181_R183H]	0.473	0.507	0.461	0.622	0.554	0.511	0.488	0.509	0.5	0.534	0.505	0.512	0.509
0.96	0.794	0.545	WTAHSYRMGSA [ARHGEF7_Y785_T790A]	0.48	0.556	0.457	0.683	0.438	0.736	0.503	0.443	0.495	0.477	0.377	0.38	0.679
0.806	0.623	0.765	YADGVYQALEE [DUOX2_Y70]	4.45	0.751	2.82	1.71	0.809	1.38	4.15	3.86	2.69	2.83	1.91	1.55	1.11
0.939	1.02	0.749	YDYKKYGKGLR [ZNF445_Y433]	0.346	0.371	0.276	0.41	0.536	0.517	0.323	0.366	0.48	0.318	0.358	0.373	0.444
0.704	0.665	0.477	YECKWYIPLTD [BCR_Y756_D752E]	0.576	0.812	0.774	1.48	1.1	1.56	0.469	0.585	1	0.843	0.922	0.657	1.48
1.34	1.22	1.44	YHRQLYHKCTH [F12_Y58]	0.481	0.453	0.537	0.886	0.606	0.795	0.378	0.53	0.641	0.41	0.571	0.467	0.653
1.11	0.917	0.904	YKEQGYHRLPP [RIN1_Y681]	0.431	0.622	0.364	0.478	0.544	0.507	0.462	0.35	0.455	0.363	0.346	0.365	0.977
0.9	0.846	0.516	YKGKNYKPLDL [RPL35_Y78_K77N]	0.391	0.32	0.246	0.423	0.362	0.697	0.334	0.276	0.575	0.277	0.333	0.267	0.59
0.794	0.851	0.483	YKIYLYTLNDN [FN1_Y1975]	0.431	0.541	0.711	1.34	1.02	1.52	0.479	0.563	1.09	0.801	0.383	0.671	1.4
0.679	0.77	0.51	YLQEIYNSNNQ [FGG_Y140]	1.84	0.436	0.561	0.918	0.606	1.23	1.59	1.54	0.692	0.617	0.441	0.512	0.998
0.848	1.64	9.92	YLRTGYSVPYG [TGM1_Y370]	0.408	0.495	0.534	0.834	0.532	0.685	0.42	0.493	0.777	0.4	0.666	0.489	0.893
0.829	0.996	0.668	YRIGPYQPSVP [MATR3_Y784_N787S]	0.449	0.749	0.434	0.55	0.759	0.708	0.514	0.481	0.62	0.421	0.425	0.429	0.524
1.51	0.984	0.556	YRVDCYKNFVA [FHL1_Y213_C209R]	0.415	0.565	0.595	0.984	0.753	1.22	0.504	0.487	0.543	0.559	0.507	0.493	0.837
1.14	1.18	2.36	YSIAQYCCRMG [LRRK2_Y2023_G2019S]	0.79	0.987	12	1.24	0.64	0.708	0.895	0.911	5.03	1.98	8.37	1.23	0.574
0.746	0.546	0.647	YSPYDYQPCLA [TNS1_Y798]	3.49	2.63	4.75	2.3	1.84	1.28	4.27	2.41	0.973	3.32	5.67	3.46	1.07

Sequence	SH2 binding enrichment (Grb2 SH2)	SH2 binding enrichment (SHP2-C SH2)	SH2 binding enrichment (c-Src SH2)	phosphorylation enrichment (c-Src)	phosphorylation enrichment (FGFR1)	phosphorylation enrichment (EPHB2)	phosphorylation enrichment (AncSZ)	phosphorylation enrichment (FGFR3)	phosphorylation enrichment (Fes)	phosphorylation enrichment (Fyn)	phosphorylation enrichment (Hck)	phosphorylation enrichment (c-Abl (mouse))	phosphorylation enrichment (EPHB1)	phosphorylation enrichment (MERTK)	phosphorylation enrichment (Fer (mouse))	phosphorylation enrichment (Jak2)
VVKTVYSLQPP [KNSTRN_Y87]	0.803	1.03	0.441	2.46	0.458	0.45	0.862	0.525	0.817	2.59	1.17	0.777	0.571	2.61	0.387	0.681
